The assay concerns the target Fas (CD95) expressed on vascular smooth muscle cells (human) (UniProt P25445). Nature of the assay: cell-based or functional assay.

The record followed here is patent US20030207838A1.

Chain of UniProt P25445 (P25445 26-335): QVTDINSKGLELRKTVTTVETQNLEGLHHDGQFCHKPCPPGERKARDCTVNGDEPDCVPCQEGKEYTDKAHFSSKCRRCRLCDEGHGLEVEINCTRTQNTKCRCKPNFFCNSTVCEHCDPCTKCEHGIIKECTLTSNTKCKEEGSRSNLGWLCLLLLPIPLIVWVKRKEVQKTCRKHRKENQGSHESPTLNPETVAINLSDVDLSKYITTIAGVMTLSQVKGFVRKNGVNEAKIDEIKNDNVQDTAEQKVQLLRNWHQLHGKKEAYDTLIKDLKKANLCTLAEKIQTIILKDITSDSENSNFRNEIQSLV

Substance “anti-Fas antibody IgM clone CH-11 (05-201 Upstate)” registered a percent of apoptotic cells (hypodiploid DNA content) 16 h after treatment, A20-expressing SMC of 33%; a percent of apoptotic cells (hypodiploid DNA content) 16 h after αFas treatment, non-infected (NI) SMC of 1.9%; a percent of apoptotic cells (hypodiploid DNA content) 16 h after αFas treatment, rAd.β-gal-infected SMC of 2.34%; a percent of apoptotic cells after αFas with Actinomycin D (150 nM), NI and rAd.β-gal infected SMC of 28 to 35%.
